# In article PMC6681339, “CoCUN, a Novel Ubiquitin Binding Domain Identified in N4BP1” (Biomolecules, 2019):
# No end group written: not given here.
# B1: CoCUN domain of N4BP1 (aa 847–896), purified polypeptide (domain or fragment, human, UniProt O75113 847-896, looked up)
# chain: AQRSSAETNELREALLKIFPDSEQRLKIDQILVAHPYMKDLNALSAMVLD
# modifications: also: 15N isotopic labelling
# notes: also called Cousin of CUBAN; N4BP1 UBD; source: bacterial expression (protocol for NMR sample preparation), purified
# Assays:
# ubiquitin [1] = target: T1, ubiquitin (UniProt P0CG48 1-76, 15N labelled in the complementary NMR experiment; unlabelled otherwise); test: ITC; 3.3 mM ubiquitin titrated to 246 µM N4BP1 (847-896) in the cell; 20 mM Tris-HCl pH 8.0, 150 mM NaCl, 5% glycerol; room temperature; one-site binding model; conditions: both partners purified
# T1 construct: the model of the complex used the ubiquitin structure PDB 1D3Z and BMRB 6457; also called monoubiquitin; UBQ
# ubiquitin [2] = target: T1, ubiquitin; test: ITC; 2.78 mM N4BP1 (847-896) titrated to 200 µM ubiquitin in the cell; 20 mM Tris-HCl pH 8.0, 150 mM NaCl, 5% glycerol; room temperature; one-site binding model; conditions: both partners purified
binder,measurement,setting,value
B1,Kd,ubiquitin [1],49.7 ± 3.6 µM
same,Kd,ubiquitin [2],61.8 ± 5.2 µM
same,dH,ubiquitin [2],-13 ± 0.4 kJ/mol
